Reference: patent US20240109955A1

Columns and labels:
Assay in all cases: cell-based or functional assay
[1] = target: SARS-CoV-2 spike (S) protein, Omicron sublineage BQ.1 (SARS-CoV-2)
[2] = target: SARS-CoV-2 spike (S) protein, Omicron sublineage XBB (SARS-CoV-2)
[3] = target: SARS-CoV-2 spike (S) protein, Omicron sublineage BA.4/5 (SARS-CoV-2)
[4] = target: SARS-CoV-2 spike (S) protein, Omicron sublineage BA.2.75.2 (SARS-CoV-2)
[5] = target: SARS-CoV-2 spike (S) protein, Omicron sublineage BQ.1.1 (SARS-CoV-2)

B1: E76-B8 (antibody, V domains shown)
VH: EVQLVESGGALIQPGGSLRLSCAASGIIVSANYMSWVRQAPGKGLEWVSVIYSGGSTFYADSVKGRFTISRDNSKNTLYLEMNSLRAEDTAVYYCARDAPILGVSDWGQGTLVTVSS
VL: EIVMTQSPAILSVSPGERATLSCRASQSVAINLAWYQQKPGQAPRLLIYAASSRATGIPGRFSGSGSETNFTLTISSLQSGDFAVYYCQQYITWPPSYTFGQGTKLEIK
B1 was tested, and the IC50, pseudovirus neutralization [1] was 0.015 µg/mL, the IC80, pseudovirus neutralization [1] was 0.0496 µg/mL and the IC50, pseudovirus neutralization [2] was 0.0134 µg/mL. It also gave an IC80, pseudovirus neutralization [2] of 0.0472 µg/mL, an IC50, pseudovirus neutralization [3] of 0.00697 µg/mL and an IC80, pseudovirus neutralization [3] of 0.0148 µg/mL. The IC50, pseudovirus neutralization [4] was 0.0122 µg/mL, the IC80, pseudovirus neutralization [4] was 0.0274 µg/mL and the IC50, pseudovirus neutralization [5] was 0.00457 µg/mL. It also gave an IC80, pseudovirus neutralization [5] of 0.0217 µg/mL.

B2: F770-E8 (antibody, V domains shown)
VH: QVTLRESGPALVKPTQTLTLTCTFSGFSLSTRGVCVSWIRQPPGKALEWLAFIDWDDDKYYNTSLKTRLTISKDTSKNQVVLTMTNVHPVDTATYYCARISSHHGSSWCTTFDYWGQGALVTVSA
VL: DTVMTQSPLSLPVTPGEPASISCRSSQSLLNSNGYNYLDWYVQKPGQSPQLLIYLGSNRASGVPDRFSGSGSGTDFTLKISRVEAEDVGVYYCMQPLQTPLFTFGPGTKVEIK
Binder B2 has an IC50, pseudovirus neutralization [1] of 0.124 µg/mL, an IC80, pseudovirus neutralization [1] of 5.19 µg/mL and an IC50, pseudovirus neutralization [2] of 0.0615 µg/mL. For the same binder, the IC80, pseudovirus neutralization [2] was 0.705 µg/mL, the IC50, pseudovirus neutralization [3] was 0.00013 µg/mL and the IC80, pseudovirus neutralization [3] was 0.00049 µg/mL. For the same binder, the IC50, pseudovirus neutralization [4] was 0.00172 µg/mL, the IC80, pseudovirus neutralization [4] was 0.0059 µg/mL and the IC50, pseudovirus neutralization [5] was 0.496 µg/mL. It also gave an IC80, pseudovirus neutralization [5] of 1.8 µg/mL.

B3: F769-E12 (antibody, V domains shown)
VH: EVQLVESGGGLIQPGGSLRLSCAASGVIVSYNYMNWVRQAPGKGLEWVSVIYSGGSTFYADSVRGRFTISRDNSKNTLYLQMNSLRAEDTAVYYCARDLGPAGAFDIWGLGTMVTVSS
VL: EIVLTQSPGTLSLSPGETATLSCRASQSFSSDLAWYQQKPGQAPRLLIYGASSRATGIPDRFSGSGSGTDFTLTISRLEPADFAVYYCQQYGSSPPVTFGGGTKVEIK
In the case of B3, the IC50, pseudovirus neutralization [1] is reported as 0.0119 µg/mL, the IC80, pseudovirus neutralization [1] is reported as 0.0409 µg/mL and the IC50, pseudovirus neutralization [2] is reported as 0.0126 µg/mL. For the same binder, the IC80, pseudovirus neutralization [2] was 0.0311 µg/mL, the IC50, pseudovirus neutralization [3] was 0.00462 µg/mL and the IC80, pseudovirus neutralization [3] was 0.00921 µg/mL. It also gave an IC50, pseudovirus neutralization [4] of 0.00699 µg/mL, an IC80, pseudovirus neutralization [4] of 0.0401 µg/mL and an IC50, pseudovirus neutralization [5] of 0.00529 µg/mL. The IC80, pseudovirus neutralization [5] was 0.0174 µg/mL.

B4: MX1057 (trispecific antibody)
chain 1: QTVVTQEPSFSVSPGGTVTLTCGLSSGSVSTAYFPSWYQQTPGQAPRTLIYGTNTRSSGVPDRFSGSILGNKAALTITGAQADDESDYYCVLYMGRGIVVFGGGTKLTVLGGSSGDTVMTQSPLSLPVTPGEPASISCRSSQSLLNSNGYNYLDWYVQKPGQSPQLLIYLGSNRASGVPDRFSGSGSGTDFTLKISRVEAEDVGVYYCMQPLQTPLFTFGPGTKVEIKGGGGSGGSGSGGGGSASGSGQVTLRESGPALVKPTQTLTLTCTFSGFSLSTRGVCVSWIRQPPGKALEWLAFIDWDDDKYYNTSLKTRLTISKDTSKNQVVLTMTNVHPVDTATYYCARISSHHGSSWCTTFDYWGQGALVTVSAGGSSGQVQLVESGGGVVQPGRSLRLSCAASGFTLSSYGMHWVRQAPGKGLEWVAVISYDGSNKYYVDSVKGRFTISRDNSKNTLYLQMNSLRAEDTAVYYCRWAYWELLPDYYYGMDVWGQGTTVTVSSASGGSGDKTHTCPPCPAPELLGGPSVFLFPPKPKDTLMISRTPEVTCVVVDVSHEDPEVKFNWYVDGVEVHNAKTKPREEQYNSYVVSVLTVLHQDWLNGKEYKCKVSNKALPAPIEKTISKAKGQPREPQVYTLPPCRDELTKNQVSLWCLVKGFYPSDIAVEWESNGQPENNYKTTPPVLDSDGSFFKKLTVDKSRWQQGNVFSCSVLHEALHSHYTQKSLSLSPG
chain 2: EIVMTQSPAILSVSPGERATLSCRASQSVAINLAWYQQKPGQAPRLLIYAASSRATGIPGRFSGSGSETNFTLTISSLQSGDFAVYYCQQYITWPPSYTFGQGTKLEIKGGSSGDTVMTQSPLSLPVTPGEPASISCRSSQSLLNSNGYNYLDWYVQKPGQSPQLLIYLGSNRASGVPDRFSGSGSGTDFTLKISRVEAEDVGVYYCMQPLQTPLFTFGPGTKVEIKGGGGSGGSGSGGGGSASGSGQVTLRESGPALVKPTQTLTLTCTFSGFSLSTRGVCVSWIRQPPGKALEWLAFIDWDDDKYYNTSLKTRLTISKDTSKNQVVLTMTNVHPVDTATYYCARISSHHGSSWCTTFDYWGQGALVTVSAGGSSGEVQLVESGGALIQPGGSLRLSCAASGIIVSANYMSWVRQAPGKGLEWVSVIYSGGSTFYADSVKGRFTISRDNSKNTLYLEMNSLRAEDTAVYYCARDAPILGVSDWGQGTLVTVSSASGGSGDKTHTCPPCPAPELLGGPSVFLFPPKPKDTLMISRTPEVTCVVVDVSHEDPEVKFNWYVDGVEVHNAKTKPREEQYNSYVVSVLTVLHQDWLNGKEYKCKVSNKALPAPIEKTISKAKGQPREPQVCTLPPSRDELTKNQVSLSCAVKGFYPSDIAVEWESNGQPENNYKTTPPVLDSDGSFFLVSKLTVDKSRWQQGNVFSCSVLHEALHSHYTQKSLSLSPG
Work on B4 yielded an IC50, pseudovirus neutralization [1] of 0.0083 µg/mL, an IC80, pseudovirus neutralization [1] of 0.0236 µg/mL and an IC50, pseudovirus neutralization [2] of 0.00639 µg/mL. It also gave an IC80, pseudovirus neutralization [2] of 0.0355 µg/mL, an IC50, pseudovirus neutralization [3] of 0.00404 µg/mL and an IC80, pseudovirus neutralization [3] of 0.00742 µg/mL. It also gave an IC50, pseudovirus neutralization [4] of 0.00127 µg/mL, an IC80, pseudovirus neutralization [4] of 0.00379 µg/mL and an IC50, pseudovirus neutralization [5] of 0.0123 µg/mL. It also gave an IC80, pseudovirus neutralization [5] of 0.0561 µg/mL.

B5: MX1058 (trispecific antibody)
chain 1: QTVVTQEPSFSVSPGGTVTLTCGLSSGSVSTAYFPSWYQQTPGQAPRTLIYGTNTRSSGVPDRFSGSILGNKAALTITGAQADDESDYYCVLYMGRGIVVFGGGTKLTVLGGSSGDTVMTQSPLSLPVTPGEPASISCRSSQSLLNSNGYNYLDWYVQKPGQSPQLLIYLGSNRASGVPDRFSGSGSGTDFTLKISRVEAEDVGVYYCMQPLQTPLFTFGPGTKVEIKGGGGSGGSGSGGGGSASGSGQVTLRESGPALVKPTQTLTLTCTFSGFSLSTRGVCVSWIRQPPGKALEWLAFIDWDDDKYYNTSLKTRLTISKDTSKNQVVLTMTNVHPVDTATYYCARISSHHGSSWCTTFDYWGQGALVTVSAGGSSGQVQLVESGGGVVQPGRSLRLSCAASGFTLSSYGMHWVRQAPGKGLEWVAVISYDGSNKYYVDSVKGRFTISRDNSKNTLYLQMNSLRAEDTAVYYCRWAYWELLPDYYYGMDVWGQGTTVTVSSASGGSGDKTHTCPPCPAPELLGGPSVFLFPPKPKDTLMISRTPEVTCVVVDVSHEDPEVKFNWYVDGVEVHNAKTKPREEQYNSYVVSVLTVLHQDWLNGKEYKCKVSNKALPAPIEKTISKAKGQPREPQVYTLPPCRDELTKNQVSLWCLVKGFYPSDIAVEWESNGQPENNYKTTPPVLDSDGSFFKKLTVDKSRWQQGNVFSCSVLHEALHSHYTQKSLSLSPG
chain 2: DTVMTQSPLSLPVTPGEPASISCRSSQSLLNSNGYNYLDWYVQKPGQSPQLLIYLGSNRASGVPDRFSGSGSGTDFTLKISRVEAEDVGVYYCMQPLQTPLFTFGPGTKVEIKGGSSGEIVMTQSPAILSVSPGERATLSCRASQSVAINLAWYQQKPGQAPRLLIYAASSRATGIPGRFSGSGSETNFTLTISSLQSGDFAVYYCQQYITWPPSYTFGQGTKLEIKGGGGSGGSGSGGGGSASGSGEVQLVESGGALIQPGGSLRLSCAASGIIVSANYMSWVRQAPGKGLEWVSVIYSGGSTFYADSVKGRFTISRDNSKNTLYLEMNSLRAEDTAVYYCARDAPILGVSDWGQGTLVTVSSGGSSGQVTLRESGPALVKPTQTLTLTCTFSGFSLSTRGVCVSWIRQPPGKALEWLAFIDWDDDKYYNTSLKTRLTISKDTSKNQVVLTMTNVHPVDTATYYCARISSHHGSSWCTTFDYWGQGALVTVSAASGGSGDKTHTCPPCPAPELLGGPSVFLFPPKPKDTLMISRTPEVTCVVVDVSHEDPEVKFNWYVDGVEVHNAKTKPREEQYNSYVVSVLTVLHQDWLNGKEYKCKVSNKALPAPIEKTISKAKGQPREPQVCTLPPSRDELTKNQVSLSCAVKGFYPSDIAVEWESNGQPENNYKTTPPVLDSDGSFFLVSKLTVDKSRWQQGNVFSCSVLHEALHSHYTQKSLSLSPG
In the case of B5, the IC50, pseudovirus neutralization [1] is reported as 0.016 µg/mL, the IC80, pseudovirus neutralization [1] is reported as 0.032 µg/mL and the IC50, pseudovirus neutralization [2] is reported as 0.0142 µg/mL. It also gave an IC80, pseudovirus neutralization [2] of 0.0318 µg/mL, an IC50, pseudovirus neutralization [3] of 0.00274 µg/mL and an IC80, pseudovirus neutralization [3] of 0.00551 µg/mL. It also gave an IC50, pseudovirus neutralization [4] of 0.00403 µg/mL, an IC80, pseudovirus neutralization [4] of 0.01 µg/mL and an IC50, pseudovirus neutralization [5] of 0.00449 µg/mL. It also gave an IC80, pseudovirus neutralization [5] of 0.0285 µg/mL.
